The source of these data is paper PMC3061437.

The assay deals with eukaryotic elongation factor-1 A1 (eEF1A1), purified (UniProt P68104).
UniProt P68104, sequence (P68104 whole entry): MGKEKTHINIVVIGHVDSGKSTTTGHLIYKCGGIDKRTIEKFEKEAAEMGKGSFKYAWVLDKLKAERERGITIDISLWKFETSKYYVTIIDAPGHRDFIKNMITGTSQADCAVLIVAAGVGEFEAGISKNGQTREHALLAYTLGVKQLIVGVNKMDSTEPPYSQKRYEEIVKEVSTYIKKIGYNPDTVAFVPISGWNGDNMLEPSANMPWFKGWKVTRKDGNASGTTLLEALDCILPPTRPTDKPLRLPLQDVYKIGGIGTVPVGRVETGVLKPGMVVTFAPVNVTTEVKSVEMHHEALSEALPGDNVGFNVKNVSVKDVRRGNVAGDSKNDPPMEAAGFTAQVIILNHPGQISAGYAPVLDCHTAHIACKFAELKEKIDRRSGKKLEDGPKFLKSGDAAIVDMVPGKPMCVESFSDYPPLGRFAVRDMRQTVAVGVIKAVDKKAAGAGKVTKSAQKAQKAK

The substance “hnRNP E1 KH1 domain expressed as GST-fusion product (domain or fragment)” gave a repression of translation of Luc-BAT in an IVT assay of 70%.
As for “recombinant full-length (FL) hnRNP E1 expressed as a GST-fusion product (from UniProt Q15365 1-356) (natural protein)”, the repression of translation of Luc-BAT in an IVT assay is above 80%.
